Measured values as given in paper PMC7335187, “Super-assembly of ER-phagy receptor Atg40 induces local ER remodeling at contacts with forming autophagosomal membranes” (Nature Communications, 2020).

Legend:
LC3B WT (rat LC3B 1-120) [1] = biological target: T1, LC3B WT (rat LC3B 1-120) (rat, UniProt Q62625 1-120); test: ITC; peptide in the syringe (0.5 mM) titrated into 200 µl of the Atg8 homologue in the cell at a 10 times lower concentration; MicroCal iTC200, 25 °C, stirring at 1000 rpm; single-site binding model; N fixed to 1.0 when the fitting was not convergent due to weak interaction; errors are fitting errors; conditions: both partners purified
GABARAPL1 WT [2] = biological target: T2, GABARAPL1 WT (UniProt Q9H0R8 1-117); test: as above; conditions: both partners purified
LC3C WT = LC3C WT (UniProt Q9BXW4 1-126); test: as above; conditions: both partners purified
GABARAPL2 WT [3] = biological target: T3, GABARAPL2 WT (UniProt P60520 1-117); test: as above; conditions: both partners purified
LC3A WT [4] = biological target: T4, LC3A WT (UniProt Q9H492 1-121); test: as above; conditions: both partners purified
[5] = biological target: T5, GABARAP WT (human GABARAP 1-116) (human, UniProt O95166 1-116); test: as above; conditions: both partners purified
GABARAPL1 WT [6] = biological target: T2, GABARAPL1 WT; test: as above; conditions: both partners purified; remark: listed apart in the source
[7] = biological target: T5, GABARAP WT (human GABARAP 1-116); test: as above; conditions: both partners purified; remark: listed apart in the source
GABARAPL2 WT [8] = biological target: T3, GABARAPL2 WT; test: as above; conditions: both partners purified; remark: listed apart in the source
LC3B WT (rat LC3B 1-120) [9] = biological target: T1, LC3B WT (rat LC3B 1-120); test: as above; conditions: both partners purified; remark: listed apart in the source
LC3A WT [10] = biological target: T4, LC3A WT; test: as above; conditions: both partners purified; remark: listed apart in the source
[11] = biological target: the molecule itself; test: co-IP; two-step: anti-FLAG beads, elution with 3 x FLAG peptide, then GFP nanobody-conjugated beads, blot for Atg40-HA; wild-type cells; larger oligomers significantly decreased in atg1Δ, atg2Δ and atg8Δ cells
[12] = biological target: the molecule itself; test: SEC-MALS; Atg40-6His solubilized in DDM; Superdex 200 increase 10/300 in 20 mM Tris-HCl pH 8.0, 150 mM NaCl, 0.03% DDM, room temperature
[13] = biological target: T6, Atg8 K26P (in the crystallised Atg40^237–252-Atg8 fusion) (S. cerevisiae, UniProt P38182 1-116, K26P); test: crystal structure; the AIM sequence fused to the N terminus of Atg8 K26P or GABARAP F3S V4T on one chain; sitting-drop vapor diffusion at 20 °C; molecular replacement; conditions: both partners purified
T6 construct: Atg8, S. cerevisiae (ScAtg8), residues 1-116; K26P introduced for stabilizing Atg8; the GST of the fusion stood before m15 and was cleaved; source: E. coli BL21 (DE3), purified (GST-accept resin, HRV 3C protease, SEC), on one chain with m15
T6 sequence (looked up): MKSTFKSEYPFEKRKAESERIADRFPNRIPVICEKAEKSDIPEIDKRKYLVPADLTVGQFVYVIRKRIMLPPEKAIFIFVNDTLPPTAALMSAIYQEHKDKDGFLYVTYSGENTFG

Atg8 (1-116) K26P = biological target: T7, Atg8 (1-116) K26P (S. cerevisiae, UniProt P38182 1-116, K26P); test: ITC; MicroCal iTC200, 25 °C; peptide in the syringe (FAM134B, SEC62, RTN3 0.5 mM; Atg40^234–252 2.0 mM; Atg40^237–252 1.8 mM), Atg8-family protein in the cell at 10 times lower concentration (1.8 mM Atg8 for Atg40^237–252 D243A D247A); 20 mM HEPES pH 6.8, 150 mM NaCl; single-site model; errors are fitting errors; conditions: both partners purified
T7 sequence (looked up): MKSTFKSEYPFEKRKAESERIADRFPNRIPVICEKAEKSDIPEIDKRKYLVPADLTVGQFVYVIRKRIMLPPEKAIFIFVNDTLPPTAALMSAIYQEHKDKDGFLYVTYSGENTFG

Chain of LC3C WT (Q9BXW4 1-126): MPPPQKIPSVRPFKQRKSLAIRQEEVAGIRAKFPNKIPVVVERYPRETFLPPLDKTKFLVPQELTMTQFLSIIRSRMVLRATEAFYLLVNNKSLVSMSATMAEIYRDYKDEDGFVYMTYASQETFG
T5 sequence (O95166 1-116): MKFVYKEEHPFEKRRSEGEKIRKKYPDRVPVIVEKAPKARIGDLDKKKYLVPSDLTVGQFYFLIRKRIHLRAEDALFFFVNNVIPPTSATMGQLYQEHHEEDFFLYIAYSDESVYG
T3 sequence (P60520 whole entry): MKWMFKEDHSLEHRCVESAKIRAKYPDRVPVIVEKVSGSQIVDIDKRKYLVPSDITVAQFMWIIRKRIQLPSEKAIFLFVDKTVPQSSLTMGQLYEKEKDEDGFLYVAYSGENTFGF
T2 sequence (Q9H0R8 whole entry): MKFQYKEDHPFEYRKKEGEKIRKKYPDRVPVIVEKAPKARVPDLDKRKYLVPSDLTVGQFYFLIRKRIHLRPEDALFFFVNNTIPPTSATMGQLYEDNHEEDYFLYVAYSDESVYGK

## GPHSSGNGNDFEMITKEELEQQTDY [SEC62355-376 WT peptide]
LC3B WT (rat LC3B 1-120) [1]
  Kd: 3.37 µM
  stoichiometry N: 0.74 site
GABARAPL1 WT [2]
  Kd: 0.39 µM
  stoichiometry N: 0.83 site
LC3C WT
  Kd: 5.18 µM
  stoichiometry N: 0.46 site
GABARAPL2 WT [3]
  Kd: 0.58 µM
  stoichiometry N: 0.78 site
LC3A WT [4]
  Kd: 0.92 µM
  stoichiometry N: 0.78 site

## GPHSSGNGNDFEMATKEELEQQTDY [SEC62355-376 I366A peptide]
[5]
  Kd: 14.5 µM
  stoichiometry N: 0.87 site

B1: SEC62361-368 (Δhelix) peptide (peptide)
peptide: NDFEMITKY
notes: SEC62, human, residues 361-368 (lacks the helix C-terminal to the AIM/LIR); Tyr attached to the C terminus for quantification by absorbance at 280 nm; also called Sec62361-368 WT (Δhelix); source: synthetic peptide (BEX Co., Ltd.), SEC
GABARAPL1 WT [2]
  Kd: 13.3 µM
  stoichiometry N: 0.99 site
LC3C WT
  Kd: 31.9 µM
GABARAPL2 WT [3]
  Kd: 90.9 µM
LC3A WT [4]
  Kd: 54.6 µM
  stoichiometry N: 0.98 site

B2: RTN3245-264 peptide (peptide)
peptide: ESPFEVIIDKAAFDKEFKDSY
notes: numbers count on: isoform e; Tyr attached to the C terminus for quantification by absorbance at 280 nm; source: synthetic peptide
GABARAPL1 WT [6]
  Kd: 5 µM
  stoichiometry N: 0.81 site
[7]
  Kd: 5.03 µM
  stoichiometry N: 0.74 site
GABARAPL2 WT [8]
  Kd: 17.4 µM
  stoichiometry N: 0.51 site
LC3B WT (rat LC3B 1-120) [9]
  Kd: 28.8 µM
LC3A WT [10]
  Kd: 17.2 µM
  stoichiometry N: 0.55 site

B3: RTN3245-253 (Δhelix) peptide (peptide)
peptide: YESPFEVIID
notes: numbers count on: isoform e; also called RTN3245-253 WT (Δhelix); source: synthetic peptide
[7]
  Kd: 14 µM
  stoichiometry N: 0.82 site
LC3B WT (rat LC3B 1-120) [9]
  Kd: 31.1 µM
  stoichiometry N: 0.91 site
LC3A WT [10]
  Kd: 21.7 µM
  stoichiometry N: 0.54 site

B4: Atg40-HA (natural protein, S. cerevisiae, UniProt Q99325 1-256, looked up)
chain: MFNLILWPLFLLTSVAIPLQLTLEVVYLTSSVDFSKASAAKTATSLGQSPVVITIYKSLLKYWSLYEFIHFIYLYTPIDAFLNFLPFTSLLMSFGSICLTRELVYDFIAFMESQNKLTGFLNKITEPNFNSYLLFSSIYNIWFADDTNDKFLFGKLTQILISVTKRYEFPRTFYLAKVSDFLQNLILTRLRPFVTEQPQGDKNRYQNGDRESTKNGAAYQKSSQQSSSFEQNFTSTEFPNDYDFMEDILDETTELD
notes: Atg40, ER-phagy receptor of S. cerevisiae; also called Atg40-FLAG; Atg40-GFP; source: S. cerevisiae cells treated with rapamycin, in lysate
[11]
  stoichiometry N: > 2

B5: Atg40-6His (natural protein, S. cerevisiae, UniProt Q99325 1-256, looked up)
chain: MFNLILWPLFLLTSVAIPLQLTLEVVYLTSSVDFSKASAAKTATSLGQSPVVITIYKSLLKYWSLYEFIHFIYLYTPIDAFLNFLPFTSLLMSFGSICLTRELVYDFIAFMESQNKLTGFLNKITEPNFNSYLLFSSIYNIWFADDTNDKFLFGKLTQILISVTKRYEFPRTFYLAKVSDFLQNLILTRLRPFVTEQPQGDKNRYQNGDRESTKNGAAYQKSSQQSSSFEQNFTSTEFPNDYDFMEDILDETTELD
notes: Atg40, S. cerevisiae; Atg40-6His is printed as 30.6 kDa; also called purified Atg40; source: S. cerevisiae BJ3505 (GPD promoter), purified from membranes in DDM (Ni-NTA, SEC)
[12]
  stoichiometry N: 2

## EFPNDYDFMEDILDET (domain or fragment, S. cerevisiae, UniProt Q99325 237-252, looked up) [Atg40^237–252 (in the crystallised Atg40^237–252-Atg8 fusion)]
[13]
  binding result: binds

B6: Atg40^234–252 peptide (peptide, UniProt Q99325 234-252, looked up)
peptide: TSTEFPNDYDFMEDILDET
notes: Atg40, S. cerevisiae, residues 234-252; also called wild-type peptide; source: synthetic peptide (Liberty Blue peptide synthesizer), SEC
Atg8 (1-116) K26P
  Kd: 0.59 µM
